Test results reported in the supplement of paper PMC5998384.

Experiments:
HeLa Kyoto [1] = assay: solubility in G1/S (NP-40 vs SDS abundance) (log2 ratio); higher = more soluble; settings: cell cycle stage: G1/S
HeLa Kyoto [2] = assay: melting temperature (median over replicates), in situ; higher = more thermally stable
HeLa Kyoto [3] = assay: solubility change mitosis vs G1/S (difference of NP-40 vs SDS log2 ratios) (log2 ratio difference); higher = more soluble in mitosis
HeLa Kyoto [4] = assay: thermal stability score vs G1/S (z-score of summed log2 fold changes over temperatures); higher = more thermally stable than in G1/S
[5] = cell cycle stage: early G1 (4.5 h after nocodazole release)
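Throughout, for melting temperature (median over replicates), in situ: HeLa Kyoto cells synchronized by double thymidine or nocodazole block, proteins quantified by TMT10plex mass spectrometry, three independent biological replicates.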
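Throughout, for solubility change mitosis vs G1/S (difference of NP-40 vs SDS log2 ratios): synchronized HeLa Kyoto cells (double thymidine block for G1/S, nocodazole release for mitosis), protein amounts in NP-40 versus SDS lysates quantified by mass spectrometry, three biological replicates.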
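Throughout, for solubility in G1/S (NP-40 vs SDS abundance): HeLa Kyoto cells arrested at G1/S by double thymidine block, proteins quantified by TMT10plex mass spectrometry in mild NP-40 versus SDS extracts, three biological replicates.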
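Throughout, for thermal stability score vs G1/S (z-score of summed log2 fold changes over temperatures): synchronized HeLa Kyoto cells, proteins quantified by TMT10plex mass spectrometry, three biological replicates, mitosis taken 0.5 h after nocodazole release, G1/S directly after double thymidine block.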

## MSKTNKSKSGSRSSRSRSASRSRSRSFSKSRSRSRSLSRSRKRRLSSRSRSRSYSPAHNRERNHPRVYQNRDFRGHNRGYRRPYYFRGRNRGFYPWGQYNRGGYGNYRSNWQNYRQAYSPRRGRSRSRSPKRRSPSPRSRSHSRNSDKSSSDRSRRSSSSRSSSNHSRVESSKRKSAKEKKSSSKDSRPSQAAGDNQGDEAKEQTFSGGTSQDTKASESSKPWPDATYGTGSASRASAVSELSPRERSPALKSPLQSVVVRRRSPRPSPVPKPSPPLSSTSQMGSTLPSGAGYQSGTHQGQFDHGSGSLSPSKKSPVGKSPPSTGSTYGSSQKEESAASGGAAYTKRYLEEQKTENGKDKEQKQTNTDKEKIKEKGSFSDTGLGDGKMKSDSFAPKTDSEKPFRGSQSPKRYKLRDDFEKKMADFHKEEMDDQDKDKAKGRKESEFDDEPKFMSKVIGANKNQEEEKSGKWEGLVYAPPGKEKQRKTEELEEESFPERSKKEDRGKRSEGGHRGFVPEKNFRVTAYKAVQEKSSSPPPRKTSESRDKLGAKGDFPTGKSSFSITREAQVNVRMDSFDEDLARPSGLLAQERKLCRDLVHSNKKEQEFRSIFQHIQSAQSQRSPSELFAQHIVTIVHHVKEHHFGSSGMTLHERFTKYLKRGTEQEAAKNKKSPEIHRRIDISPSTFRKHGLAHDEMKSPREPGYKAEGKYKDDPVDLRLDIERRKKHKERDLKRGKSRESVDSRDSSHSRERSAEKTEKTHKGSKKQKKHRRARDRSRSSSSSSQSSHSYKAEEYTEETEEREESTTGFDKSRLGTKDFVGPSERGGGRARGTFQFRARGRGWGRGNYSGNNNNNSNNDFQKRNREEEWDPEYTPKSKKYYLHDDREGEGSDKWVSRGRGRGAFPRGRGRFMFRKSSTSPKWAHDKFSGEEGEIEDDESGTENREEKDNIQPTTE [THRAP3]
HeLa Kyoto [1]
  solubility in G1/S (log2): -1.38
HeLa Kyoto [2]; cell cycle stage: G1/S
  melting temperature: 50.5 °C
HeLa Kyoto [2]; cell cycle stage: mitosis
  melting temperature: 51.2 °C
HeLa Kyoto [3]
  solubility change mitosis (log2): 0.46
HeLa Kyoto [4]; [5]
  thermal stability score: -5.24
HeLa Kyoto [4]; cell cycle stage: mitosis
  thermal stability score: -3.44

## MSLDIQSLDIQCEELSDARWAELLPLLQQCQVVRLDDCGLTEARCKDISSALRVNPALAELNLRSNELGDVGVHCVLQGLQTPSCKIQKLSLQNCCLTGAGCGVLSSTLRTLPTLQELHLSDNLLGDAGLQLLCEGLLDPQCRLEKLQLEYCSLSAASCEPLASVLRAKPDFKELTVSNNDINEAGVRVLCQGLKDSPCQLEALKLESCGVTSDNCRDLCGIVASKASLRELALGSNKLGDVGMAELCPGLLHPSSRLRTLWIWECGITAKGCGDLCRVLRAKESLKELSLAGNELGDEGARLLCETLLEPGCQLESLWVKSCSFTAACCSHFSSVLAQNRFLLELQISNNRLEDAGVRELCQGLGQPGSVLRVLWLADCDVSDSSCSSLAATLLANHSLRELDLSNNCLGDAGILQLVESVRQPGCLLEQLVLYDIYWSEEMEDRLQALEKDKPSLRVIS [RNH1]
HeLa Kyoto [1]
  solubility in G1/S (log2): 0.188
HeLa Kyoto [2]; cell cycle stage: G1/S
  melting temperature: 52.8 °C
HeLa Kyoto [2]; cell cycle stage: mitosis
  melting temperature: 52.8 °C
HeLa Kyoto [3]
  solubility change mitosis (log2): -0.113
HeLa Kyoto [4]; [5]
  thermal stability score: 1.78
HeLa Kyoto [4]; cell cycle stage: mitosis
  thermal stability score: 1.35

## MSLEQEEETQPGRLLGRRDAVPAFIEPNVRFWITERQSFIRRFLQWTELLDPTNVFISVESIENSRQLLCTNEDVSSPASADQRIQEAWKRSLATVHPDSSNLIPKLFRPAAFLPFMAPTVFLSMTPLKGIKSVILPQVFLCAYMAAFNSINGNRSYTCKPLERSLLMAGAVASSTFLGVIPQFVQMKYGLTGPWIKRLLPVIFLVQASGMNVYMSRSLESIKGIAVMDKEGNVLGHSRIAGTKAVRETLASRIVLFGTSALIPEVFTYFFKRTQYFRKNPGSLWILKLSCTVLAMGLMVPFSFSIFPQIGQIQYCSLEEKIQSPTEETEIFYHRGV [SFXN4]
HeLa Kyoto [1]
  solubility in G1/S (log2): -0.194
HeLa Kyoto [2]; cell cycle stage: G1/S
  melting temperature: 53.9 °C
HeLa Kyoto [2]; cell cycle stage: mitosis
  melting temperature: 54.8 °C
HeLa Kyoto [3]
  solubility change mitosis (log2): -0.195
HeLa Kyoto [4]; [5]
  thermal stability score: 0.0593
HeLa Kyoto [4]; cell cycle stage: mitosis
  thermal stability score: -1.77

## MSLEQRSLHCKPEEALEAQQEALGLVCVQAATSSSSPLVLGTLEEVPTAGSTDPPQSPQGASAFPTTINFTRQRQPSEGSSSREEEGPSTSCILESLFRAVITKKVADLVGFLLLKYRAREPVTKAEMLESVIKNYKHCFPEIFGKASESLQLVFGIDVKEADPTGHSYVLVTCLGLSYDGLLGDNQIMPKTGFLIIVLVMIAMEGGHAPEEEIWEELSVMEVYDGREHSAYGEPRKLLTQDLVQEKYLEYRQVPDSDPARYEFLWGPRALAETSYVKVLEYVIKVSARVRFFFPSLREAALREEEEGV [MAGEA1]
HeLa Kyoto [1]
  solubility in G1/S (log2): -0.178
HeLa Kyoto [2]; cell cycle stage: G1/S
  melting temperature: 48.4 °C
HeLa Kyoto [2]; cell cycle stage: mitosis
  melting temperature: 49.5 °C
HeLa Kyoto [3]
  solubility change mitosis (log2): -0.0297
HeLa Kyoto [4]; [5]
  thermal stability score: 0.313
HeLa Kyoto [4]; cell cycle stage: mitosis
  thermal stability score: 2.38

## MSLKSERRGIHVDQSDLLCKKGCGYYGNPAWQGFCSKCWREEYHKARQKQIQEDWELAERLQREEEEAFASSQSSQGAQSLTFSKFEEKKTNEKTRKVTTVKKFFSASSRVGSKKEIQEAKAPSPSINRQTSIETDRVSKEFIEFLKTFHKTGQEIYKQTKLFLEGMHYKRDLSIEEQSECAQDFYHNVAERMQTRGKVPPERVEKIMDQIEKYIMTRLYKYVFCPETTDDEKKDLAIQKRIRALRWVTPQMLCVPVNEDIPEVSDMVVKAITDIIEMDSKRVPRDKLACITKCSKHIFNAIKITKNEPASADDFLPTLIYIVLKGNPPRLQSNIQYITRFCNPSRLMTGEDGYYFTNLCCAVAFIEKLDAQSLNLSQEDFDRYMSGQTSPRKQEAESWSPDACLGVKQMYKNLDLLSQLNERQERIMNEAKKLEKDLIDWTDGIAREVQDIVEKYPLEIKPPNQPLAAIDSENVENDKLPPPLQPQVYAG [RABGEF1]
HeLa Kyoto [1]
  solubility in G1/S (log2): 0.143
HeLa Kyoto [2]; cell cycle stage: G1/S
  melting temperature: 52.3 °C
HeLa Kyoto [2]; cell cycle stage: mitosis
  melting temperature: 50.3 °C
HeLa Kyoto [3]
  solubility change mitosis (log2): -0.0709
HeLa Kyoto [4]; [5]
  thermal stability score: 0.899
HeLa Kyoto [4]; cell cycle stage: mitosis
  thermal stability score: -2.37

## MSLQWTAVATFLYAEVFVVLLLCIPFISPKRWQKIFKSRLVELLVSYGNTFFVVLIVILVLLVIDAVREIRKYDDVTEKVNLQNNPGAMEHFHMKLFRAQRNLYIAGFSLLLSFLLRRLVTLISQQATLLASNEAFKKQAESASEAAKKYMEENDQLKKGAAVDGGKLDVGNAEVKLEEENRSLKADLQKLKDELASTKQKLEKAENQVLAMRKQSEGLTKEYDRLLEEHAKLQAAVDGPMDKKEE [BCAP31]
HeLa Kyoto [1]
  solubility in G1/S (log2): 0.132
HeLa Kyoto [2]; cell cycle stage: G1/S
  melting temperature: 55.5 °C
HeLa Kyoto [2]; cell cycle stage: mitosis
  melting temperature: 55.5 °C
HeLa Kyoto [3]
  solubility change mitosis (log2): -0.101
HeLa Kyoto [4]; [5]
  thermal stability score: -4.24
HeLa Kyoto [4]; cell cycle stage: mitosis
  thermal stability score: -4.65

## MSLSSGASGGKGVDANPVETYDSGDEWDIGVGNLIIDLDADLEKDQQKLEMSGSKEVGIPAPNAVATLPDNIKFVTPVPGPQGKEGKSKSKRSKSGKDTSKPTPGTSLFTPSEGAASKKEVQGRSGDGANAGGLVAAIAPKGSEKAAKASRSVAGSKKEKENSSSKSKKERSEGVGTCSEKDPGVLQPVPLGGRGGQYDGSAGVDTGAVEPLGSIAIEPGAALNPLGTKPEPEEGENECRLLKKVKSEKMESPVSTPAVLPIHLLVPVVNNDISSPCEQIMVRTRSVGVNTCDVALATEPECLGPCEPGTSVNLEGIVWQETEDGMLVVNVTWRNKTYVGTLLDCTRHDWAPPRFCDSPTSDLEMRNGRGRGKRMRPNSNTPVNETATASDSKGTSNSSKTRAGANSKGRRGSQNSSEHRPPASSTSEDVKASPSSANKRKNKPLSDMELNSSSEDSKGSKRVRTNSMGSATGPLPGTKVEPTVLDRNCPSPVLIDCPHPNCNKKYKHINGLKYHQAHAHTDDDSKPEADGDSEYGEEPILHADLGSCNGASVSQKGSLSPARSATPKVRLVEPHSPSPSSKFSTKGLCKKKLSGEGDTDLGALSNDGSDDGPSVMDETSNDAFDSLERKCMEKEKCKKPSSLKPEKIPSKSLKSARPIAPAIPPQQIYTFQTATFTAASPGSSSGLTATVAQAMPNSPQLKPIQPKPTVMGEPFTVNPALTPAKDKKKKDKKKKESSKELESPLTPGKVCRAEEGKSPFRESSGDGMKMEGLLNGSSDPHQSRLASIKAEADKIYSFTDNAPSPSIGGSSRLENTTPTQPLTPLHVVTQNGAEASSVKTNSPAYSDISDAGEDGEGKVDSVKSKDAEQLVKEGAKKTLFPPQPQSKDSPYYQGFESYYSPSYAQSSPGALNPSSQAGVESQALKTKRDEEPESIEGKVKNDICEEKKPELSSSSQQPSVIQQRPNMYMQSLYYNQYAYVPPYGYSDQSYHTHLLSTNTAYRQQYEEQQKRQSLEQQQRGVDKKAEMGLKEREAALKEEWKQKPSIPPTLTKAPSLTDLVKSGPGKAKEPGADPAKSVIIPKLDDSSKLPGQAPEGLKVKLSDASHLSKEASEAKTGAECGRQAEMDPILWYRQEAEPRMWTYVYPAKYSDIKSEDERWKEERDRKLKEERSRSKDSVPKEDGKESTSSDCKLPTSEESRLGSKEPRPSVHVPVSSPLTQHQSYIPYMHGYSYSQSYDPNHPSYRSMPAVMMQNYPGSYLPSSYSFSPYGSKVSGGEDADKARASPSVTCKSSSESKALDILQQHASHYKSKSPTISDKTSQERDRGGCGVVGGGGSCSSVGGASGGERSVDRPRTSPSQRLMSTHHHHHHLGYSLLPAQYNLPYAAGLSSTAIVASQQGSTPSLYPPPRR [ZNF609]
HeLa Kyoto [1]
  solubility in G1/S (log2): 0.0412
HeLa Kyoto [2]; cell cycle stage: G1/S
  melting temperature: 49.9 °C
HeLa Kyoto [2]; cell cycle stage: mitosis
  melting temperature: 52.1 °C
HeLa Kyoto [3]
  solubility change mitosis (log2): 0.204
HeLa Kyoto [4]; [5]
  thermal stability score: -1.11
HeLa Kyoto [4]; cell cycle stage: mitosis
  thermal stability score: 2.18
